This note sets out measurements from article PMC8068667 (Nature, 2021).

The target of this test is RIFIN PF3D7_1373400 V2 domain, soluble recombinant (P. falciparum 3D7, UniProt C0H5N9). Put plainly: cryo-EM structure.

B1: MDB1 Fab (LILRB1 D3D4-containing antibody Fab) (Fab, V domains shown)
VH: QITLKESGPTLVERTQTLTLTCTFSGFSLTTDGLGVGWIRQPPGKALEWLALIYYDDVRRYRPSLKSRLTITKDTSKNRVVLTVTDMDPVDAGTYFCVHASLFNLGSRNVYFRYWGQGTLVSVSS
VL: SYDLTQPPSVSVSPGQTARITCSGDSLARQFASWYQQKPGQSPVLLIYKNIERLSAIPERFSGSTSGTSVTLTISGVQAEDEADYFCQSADDSGSYSLFGTGTRVSVL
For B1, the binding result is “binds”.
